# From patent US6844171 (Harvard, dated 2005)
# B1: recombinant small delta antigen (r-HDAg-S), full length, expressed in E. coli from plasmid pR5δV5 (other)
# chain: SRSERRKDRGGREDILEQWVSGRKKLEELERDLRKLKKKIKKLEEDNPWLGNIKGIIGKKDKDGEGAPPAKKLRMDQMEIDAGPRKRPLRGGFTDKERQDHRRRKALENKRKQLSSGGKSLSREEEEELKRLTEEDEKRERRIAGPSVGGVNPLEGGSRGAPGGGFVPSMQGVPESPFARTGEGLDIRGSQGFP
# notes: also called r-δAg-S; rδAg-S
# What was measured:
# [1] = target: δ25-60(Y) peptide (regions B+C of the HDAg multimer-forming domain, with C-terminal tyrosine) (hepatitis delta virus (American strain)); assay: CD spectroscopy in PBS at 37° C.
# [2] = target: δ12-49 peptide (regions A+B of the HDAg multimer-forming domain) (hepatitis delta virus (American strain)); assay: CD spectroscopy in PBS at 37° C.
# [3] = target: the molecule itself; assay: glutaraldehyde cross-linking, MALDI-TOF mass spectrometry
molecule,measurement,setting,value
"δ25-60(Y) peptide (regions B+C of the HDAg multimer-forming domain, with C-terminal tyrosine)",[θ222]/[θ208] ratio (indicator of coiled-coil formation),[1],0.76
GREDILEQWVSGRKKLEELERDLRKLKKKIKKLEEDNP [δ12-49 peptide (regions A+B of the HDAg multimer-forming domain)],[θ222]/[θ208] ratio (indicator of coiled-coil formation),[2],0.79
B1,ratio of the masses of the cross-linked species to the monomer,[3],8.1
